For 5 molecules, binding result and Kd results are on record in patent publication US20240076389A1 (NATIONAL RESEARCH COUNCIL OF CANADA, published 2024).

Assay [1] deals with T1, AXL fragment # 4 (AXL amino acids 219-335, FN III-1).
T1 chain: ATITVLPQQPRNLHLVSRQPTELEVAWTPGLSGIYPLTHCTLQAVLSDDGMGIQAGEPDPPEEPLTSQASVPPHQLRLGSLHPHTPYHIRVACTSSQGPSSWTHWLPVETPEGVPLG
Nature of the assay: yeast surface display of hAXL fragments, whole yeast cell ELISA, signal normalised to anti-MYC. From the text: (§1) Epitope mapping. […] The YSD vector (pPNL6) was from The Pacific Northwest National Laboratory, USA.
In general terms: In an ELISA, binding on a coated surface is turned into a signal by an enzyme label.

The target in assay [2] is T2, AXL fragment # 7 (AXL amino acids 135-335, IgL2+FN III-1).
T2 chain: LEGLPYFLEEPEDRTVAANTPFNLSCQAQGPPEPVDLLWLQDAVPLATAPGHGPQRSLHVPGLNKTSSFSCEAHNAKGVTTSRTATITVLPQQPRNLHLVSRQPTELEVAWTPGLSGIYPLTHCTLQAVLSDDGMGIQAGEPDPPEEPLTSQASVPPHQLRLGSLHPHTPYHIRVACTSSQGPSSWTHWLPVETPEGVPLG
The assay is described as above.
Source text: as §1

Assay [3] concerns the target T3, AXL fragment # 1 (AXL amino acids 135-226, IgL2).
T3 chain: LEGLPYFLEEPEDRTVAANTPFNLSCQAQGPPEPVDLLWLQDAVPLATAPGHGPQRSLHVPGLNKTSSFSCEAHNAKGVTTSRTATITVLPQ
The description is as above.
Source text: as §1

For assay [4], the target named is T4, AXL fragment # 5 (AXL amino acids 321-450, FN III-2+).
T4 chain: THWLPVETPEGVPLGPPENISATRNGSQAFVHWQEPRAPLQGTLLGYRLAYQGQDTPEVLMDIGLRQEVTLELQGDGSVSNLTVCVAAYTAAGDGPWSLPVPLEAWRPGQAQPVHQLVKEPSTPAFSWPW
Described as above.
Source text: as §1

The target in assay [5] is T5, AXL fragment # 8 (AXL amino acids 219-450, FN III-1+FN III-2+).
T5 construct: not shown: Yeast display carrier and tags (Aga2p, HA, MYC and any linkers)
T5 chain: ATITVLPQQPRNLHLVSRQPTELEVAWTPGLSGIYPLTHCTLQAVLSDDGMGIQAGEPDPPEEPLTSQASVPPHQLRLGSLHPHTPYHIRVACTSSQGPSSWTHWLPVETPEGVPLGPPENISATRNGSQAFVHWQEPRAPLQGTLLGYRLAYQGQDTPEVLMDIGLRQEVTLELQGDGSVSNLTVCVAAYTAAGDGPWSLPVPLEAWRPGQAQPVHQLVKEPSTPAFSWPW
Described as above.
Source text: as §1

For assay [6], the target named is T6, AXL fragment # 2 (AXL amino acids 321-429, FN III-2).
T6 chain: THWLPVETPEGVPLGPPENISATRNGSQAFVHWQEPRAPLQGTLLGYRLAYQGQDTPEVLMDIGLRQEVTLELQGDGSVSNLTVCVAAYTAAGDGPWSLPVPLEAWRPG
The assay is described as above.
Source text: as §1

In assay [7] the target is T7, human AXL expressed on the cell surface of tumor cell lines (human, UniProt P30530 26-894).
T7 construct: whole, on cells; also called cell surface-expressed AXL; cell-based AXL
T7 sequence (looked up): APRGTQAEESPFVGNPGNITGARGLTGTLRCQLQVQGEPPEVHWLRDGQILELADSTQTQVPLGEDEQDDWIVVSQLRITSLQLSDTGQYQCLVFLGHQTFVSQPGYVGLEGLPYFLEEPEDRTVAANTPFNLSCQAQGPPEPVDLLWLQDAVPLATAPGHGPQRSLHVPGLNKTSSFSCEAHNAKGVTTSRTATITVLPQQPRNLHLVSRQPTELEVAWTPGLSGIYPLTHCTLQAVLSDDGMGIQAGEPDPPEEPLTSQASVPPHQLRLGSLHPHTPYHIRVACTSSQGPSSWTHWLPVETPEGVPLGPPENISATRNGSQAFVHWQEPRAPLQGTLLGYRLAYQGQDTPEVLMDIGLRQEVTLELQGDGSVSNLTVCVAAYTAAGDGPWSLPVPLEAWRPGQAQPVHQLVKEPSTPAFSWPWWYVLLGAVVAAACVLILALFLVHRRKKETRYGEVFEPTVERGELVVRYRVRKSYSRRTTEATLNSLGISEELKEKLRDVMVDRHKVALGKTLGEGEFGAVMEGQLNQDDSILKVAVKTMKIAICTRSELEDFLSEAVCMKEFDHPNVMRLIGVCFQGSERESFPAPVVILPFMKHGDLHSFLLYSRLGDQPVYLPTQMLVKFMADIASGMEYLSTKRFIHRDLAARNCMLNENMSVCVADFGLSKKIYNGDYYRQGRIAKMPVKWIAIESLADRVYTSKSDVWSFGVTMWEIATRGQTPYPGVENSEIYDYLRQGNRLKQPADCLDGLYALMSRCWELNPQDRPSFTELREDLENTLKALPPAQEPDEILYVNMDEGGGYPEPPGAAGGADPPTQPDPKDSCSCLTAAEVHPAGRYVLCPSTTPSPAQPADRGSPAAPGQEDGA
Nature of the assay: flow cytometry on H292 cells, apparent cell binding constant. As to the method:
Detection of antibody binding to surface AXL by flow cytometry. Prior to analysis, cells were plated such that they were not more than 80% confluent on the day of analysis. Cells were washed in PBS and harvested by the addition of cell dissociation buffer (Sigma). A cell suspension containing 2.5×10⁵ cells (in 500 μl corresponding cell culture media) was incubated with various concentrations (0.01-10 nM) of anti-AXL antibodies for 2 h at 4° C. (to prevent internalization). Following one wash with cell culture media, primary antibody was incubated with 2 μg DYLIGHT™ 488 conjugated AffiniPure goat anti-mouse IgG Alexa 488 secondary antibody (Jackson ImmunoResearch) in 100 μl of media for 1 h at 4° C. Prior to analysis, cell pellets were re-suspended in 300-500 μl media and filtered through a 50 μm nylon mesh filter to remove cell aggregates. Flow cytometry analyses were performed on 10,000 viable cells gated on forward scattering, side scattering parameters and propidium iodide dye exclusion using a BD LSRII flow Cytometer (Becton-Dickinson Biosciences, CA, USA) and a standard filter set using BD FACSDiva™ acquisition software, according to manufacturer's instructions.
Specific detection of antibody binding was calculated as the mean fluorescent intensity of binding to each primary antibody after background level subtraction of the mean fluorescent intensity of binding in the absence of primary antibody (but containing detection antibody). Binding parameters Bmax, (maximum fluorescence signal at receptor saturation), and KD (apparent cell binding constant) were then determined using a One site—Specific binding with Hill slope model in GraphPad Prism v 6.0.

B1: F107-10G1 (antibody, V domains shown)
VH: EVNLVESGGGVVKPGASLKLSCEASGFTFSNYGMSWVRQTSDKRLEWVASISGGGGRTYYLDNVKGRFIISRENAKNTLYLQMSSLKSEDTALFYCARGARASYFAMDYWGQGSSVTVSS
VL: VIVMTQSHKFMSTSVGDRVSITCKASQDVTTAVAWYQQKPGQSPKLLIYWASTRHTGVPDRFTGSGSGTDYSLTISNVQTEDLAFYYCQQHFTTPLTFGAGTKLELK
notes: also called F107-10G1-3
As for B1, the binding result in assay [1], in assay [2], in assay [3], in assay [4], in assay [5] and in assay [6] was “no binding” each time. Further, the Kd in assay [7] was 0.101 nM.

B2: F107-8D12 (antibody, V domains shown)
VH: QVQLQQPGAELVKPGASVQLSCKASGYTFISFWINWVKQRPGQGLEWMGNIFPGSSSTNYNEKFKSKATLTVDKSSSTAYMQLSSLTSEDSAVYFCARDYYGGSPDYWGQGTTLTVSS
VL: DIVMSQSPSSLAVSAGERVTMSCKSSQSLLNTRTRKNYLAWYQQKPGQSPKLLIYWASTRESGVPDRFTGSGSGTDFTLTISSVQAEDLAVYYCKQSYNLWTFGGGTKLEIK
notes: also called F107-8D12-2; mAb 8D12
For B2, the binding result in assay [1], in assay [2], in assay [3], in assay [4], in assay [5] and in assay [6] was “no binding” throughout. Besides, in assay [7], the Kd was 0.088 nM.

B3: F107-7H5 (antibody, V domains shown)
VH: QVQLQQPGAELVKPGASVKLSCKASGYTFTSYWINWVKQRPGQGLEWIGNIYPDSSSTNYNEKFKSKATLTVDKSSTTAYIQFSSLTSEDSAVYYCTRDTYGGSPDYWGQGTTLTVSS
VL: DIVMSQSPSSLAVSAGEKVTMSCKSSQSLLNSRTRKIYLAWYQQKPGQSPKLLIYWASTRQSGVPDRFTGSGSGTDFTLTISSVQAEDLAVYYCKQSYNLWTFGGGTKLEIK
notes: also called F107-7H5-2; mAb 7H5
Take B3: the binding result in assay [1], in assay [2], in assay [3], in assay [4], in assay [5] and in assay [6] was “no binding” throughout. In addition, the Kd in assay [7] was 0.104 nM.

B4: F111-3C8 (antibody, V domains shown)
VH: QVQLQQPGAELGKPGTSVKLSCKASGYTFTSYWMHWVKRVPGQGLEWIGNINPNSTSADYNEKFKRKATLTVDKSSSTAYMQLSTLTSEDSAVYYCTRPLMGPYWYFDVWGTGTTVTVSS
VL: QIVLTQSPAIMSASPGEKVTISCSASSSVSYMYWYQQKPGSSPKPWIYRTSNLASGVPARFSGSGSGTSYSLTISSMEAEDAATYYCQQYHNYPPTFGGGTKLEIK
notes: also called F111-3C8-2
As for B4, the binding result in assay [1], in assay [4], in assay [5] and in assay [6] was “no binding” in each case. Also, in assay [7], the Kd turned out to be 1.23 nM.

B5: F111-5E9 (antibody, V domains shown)
VH: QIQLVQSGPELKKPGETVKISCKASGYTFTKYGMNWVKQAPGKGLKWMGWINTYTGEPTYADDFKGRFAFSLETSASTAYLQINNLTTEDMVTYFCAKGGYYSNPIYPMDYWGQGTSVTVSS
VL: DIQMTQTTSSLSASLGDRVTISCRASQDINNYLNWYQQKPDGTVKLLIYYISRLHSGVPSRFSGSGSGTDYSLTISNLELEDVATYFCQQGNTLPFTFGSGTKLEIK
notes: also called F111-5E9-2; mAb 5E9
Turning to B5, the binding result in assay [1], in assay [4], in assay [5] and in assay [6] was “no binding” each time. In assay [7], the Kd worked out at 0.177 nM.
